Measurements: patent publication US10849992B1, “Methods of screening for sortilin binding antagonists” (ALECTOR LLC, priority 2015, dated 2020)
Values belong to the molecule of their own block, whether it stands above or below them. No end group written: not given here. *: point of attachment. Biotin = O=C1N[C@H]2[C@H](CS[C@H]2CCCCC(=O)*)N1

What was measured:
[1] = biological target: T1, sortilin protein with a C-terminal 6×His-tag (Homo sapiens (Human), UniProt Q99523 78-755, directly conjugated with d2 in assay format #3 (site not stated); unlabeled and detected with d2-labeled 1C12 in assay format #10); experiment: HTRF, assay format #3: sortilin-d2 at 9 nM, SA-Tb at 0.33 nM; assay format #3: directly d2 conjugated sortilin, SA-Tb
T1 construct: Soluble sortilin of the HTRF assays; also called sortilin-d2; Tb-conjugated sortilin protein
T1 sequence: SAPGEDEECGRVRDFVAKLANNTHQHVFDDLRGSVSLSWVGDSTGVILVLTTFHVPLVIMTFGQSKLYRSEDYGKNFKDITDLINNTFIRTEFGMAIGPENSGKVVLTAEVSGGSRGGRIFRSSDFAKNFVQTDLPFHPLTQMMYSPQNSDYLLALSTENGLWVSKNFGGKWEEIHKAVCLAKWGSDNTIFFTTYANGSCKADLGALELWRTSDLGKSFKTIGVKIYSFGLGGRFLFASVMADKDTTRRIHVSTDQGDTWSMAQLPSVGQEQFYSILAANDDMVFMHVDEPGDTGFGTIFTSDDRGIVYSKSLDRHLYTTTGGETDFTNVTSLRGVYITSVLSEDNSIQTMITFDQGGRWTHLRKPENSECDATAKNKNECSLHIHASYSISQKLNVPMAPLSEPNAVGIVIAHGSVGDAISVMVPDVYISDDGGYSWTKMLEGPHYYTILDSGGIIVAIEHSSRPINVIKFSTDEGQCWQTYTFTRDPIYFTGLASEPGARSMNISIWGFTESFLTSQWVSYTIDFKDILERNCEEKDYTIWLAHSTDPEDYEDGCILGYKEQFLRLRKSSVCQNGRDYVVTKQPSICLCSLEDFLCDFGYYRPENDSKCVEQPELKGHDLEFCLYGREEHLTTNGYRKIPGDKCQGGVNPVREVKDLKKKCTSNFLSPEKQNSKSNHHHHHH
Description: (§1) Assay #3 uses directly d2 conjugated sortilin and SA-Tb to detect the peptide. […] Assay #10 uses anti-sortilin 1C12 antibody to detect sortilin and SA-Tb to detect the peptide.

[2] = biological target: T1, sortilin protein with a C-terminal …; experiment: HTRF, assay format #10: sortilin at 9 nM, anti-sortilin 1C12 at 20 ng/well, SA-Tb at 0.33 nM; assay format #10: sortilin detected with anti-sortilin 1C12 antibody, SA-Tb
Description: as §1

[3] = biological target: T1, sortilin protein with a C-terminal …; experiment: row HotKdNM of the drawn table: Kd of the labelled (biotinylated) peptide for sortilin, held constant in the Ki fit of assay format 10; same value in all three columns
[4] = biological target: T2, human sortilin expressed on cells (human, UniProt Q99523 78-831); experiment: flow cytometry on transiently transfected HEK293T cells, on ice, Streptavidin-APC, median fluorescence intensity
T2 construct: Transiently transfected HEK293T cells; also called Sortilin1; full-length Sortilin
T2 sequence: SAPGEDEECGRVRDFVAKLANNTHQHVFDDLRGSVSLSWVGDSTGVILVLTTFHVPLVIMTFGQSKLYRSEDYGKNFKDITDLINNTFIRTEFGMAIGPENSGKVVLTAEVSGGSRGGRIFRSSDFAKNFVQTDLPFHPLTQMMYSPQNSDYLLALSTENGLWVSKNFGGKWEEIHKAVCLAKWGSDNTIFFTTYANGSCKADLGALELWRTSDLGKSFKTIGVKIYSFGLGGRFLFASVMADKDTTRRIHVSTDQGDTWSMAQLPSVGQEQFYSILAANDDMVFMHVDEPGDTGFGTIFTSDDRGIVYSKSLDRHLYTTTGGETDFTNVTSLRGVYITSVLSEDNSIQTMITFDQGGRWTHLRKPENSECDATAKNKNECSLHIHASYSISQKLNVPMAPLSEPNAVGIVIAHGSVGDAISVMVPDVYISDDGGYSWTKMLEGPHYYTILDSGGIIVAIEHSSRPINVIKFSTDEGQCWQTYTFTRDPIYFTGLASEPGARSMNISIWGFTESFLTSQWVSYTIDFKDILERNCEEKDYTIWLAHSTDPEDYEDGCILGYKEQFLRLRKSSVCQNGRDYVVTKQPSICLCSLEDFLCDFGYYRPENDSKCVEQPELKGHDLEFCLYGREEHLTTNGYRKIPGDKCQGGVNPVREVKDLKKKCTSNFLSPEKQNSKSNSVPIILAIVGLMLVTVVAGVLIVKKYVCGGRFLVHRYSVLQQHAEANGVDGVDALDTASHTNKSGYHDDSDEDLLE
Protocol: (§2) Cells were then washed and incubated with Streptavidin-APC and analyzed using Fluorescence Activated Cell Sorting (FACS). […] Cells were transiently transfected with human Sortilin or lacZ (control) and GFP using Fugene and harvested after 24 h. GFP was either expressed by a second vector (Topo3.3, Invitrogen) or located on the same vector, separated by an IRES sequence (pCMV6-AC-IRES-GFP, Origene). Full-length Sortilin was used either untagged (Topo3.3) or with a C-terminal myc tag (pCMV6-AC-IRES-GFP). […] After washing cells 3 times in HBSS+1% BSA, cells were incubated in Streptavidin-APC (BD Biosciences, 1:20) on ice for 30 min. Then cells were washed again, resuspended in HBSS+1% BSA and analyzed on a FACSCanto™ flow cytometer (BD Biosciences, Mississauga, ON).

Sortilin = biological target: T3, Sortilin (Homo sapiens, UniProt Q99523); experiment: Cell-based FACS assay: biotinylated PGRN binding to HEK293T cells expressing Sortilin; set-up: Full-length Sortilin was used either untagged (Topo3.3) or with a C-terminal myc tag (pCMV6-AC-IRES-GFP); myc (only in the pCMV6-AC-IRES-GFP construct); expressed in transfected cells; host or cells: HEK293T; settings: on ice 2 h, Streptavidin-APC
T3 sequence (Q99523 78-831): T2 sequence
Protocol: HEK293T cells were transiently transfected with constructs for expressing Sortilin or LacZ (control) and incubated with biotinylated PGRN protein on ice for 2 h. Both human and mouse PGRN proteins were tested. Cells were then washed and incubated with Streptavidin-APC and analyzed using Fluorescence Activated Cell Sorting (FACS). For blocking assay, sortilin pro-domain peptide was used. Recombinant human PGRN (Adipogen) was biotinylated using a kit (EZ-link-Micro-NHS-PEG4 biotinylation kit, Thermo Scientific Pierce, #21955). Cells were transiently transfected with human Sortilin or lacZ (control) and GFP using Fugene and harvested after 24 h. GFP was either expressed by a second vector (Topo3.3, Invitrogen) or located on the same vector, separated by an IRES sequence (pCMV6-AC-IRES-GFP, Origene). Full-length Sortilin was used either untagged (Topo3.3) or with a C-terminal myc tag (pCMV6-AC-IRES-GFP). Human Progranulin was added in HBSS+1% BSA or PBS+1% BSA with or without Sortilin pro-peptide as a blocker, and incubated on ice for 2 h. […] Then cells were washed again, resuspended in HBSS+1% BSA and analyzed on a FACSCanto™ flow cytometer (BD Biosciences, Mississauga, ON). PGRN binding was measured as the median fluorescence intensity of APC on the GFP positive population.

[5] = biological target: T2, human sortilin expressed on cells; experiment: FACS, blocking of PGRN-DyLight650 binding and endocytosis on sortilin-expressing cells
[6] = biological target: T2, human sortilin expressed on cells; experiment: FACS, blocking of biotinylated PGRN binding to sortilin-expressing HEK293T cells
Protocol: as §2

B2: biotinylated mouse PGRN (ligand, UniProt P28798 18-589, looked up)
chain: TQCPDGQFCPVACCLDQGGANYSCCNPLLDTWPRITSHHLDGSCQTHGHCPAGYSCLLTVSGTSSCCPFSKGVSCGDGYHCCPQGFHCSADGKSCFQMSDNPLGAVQCPGSQFECPDSATCCIMVDGSWGCCPMPQASCCEDRVHCCPHGASCDLVHTRCVSPTGTHTLLKKFPAQKTNRAVSLPFSVVCPDAKTQCPDDSTCCELPTGKYGCCPMPNAICCSDHLHCCPQDTVCDLIQSKCLSKNYTTDLLTKLPGYPVKEVKCDMEVSCPEGYTCCRLNTGAWGCCPFAKAVCCEDHIHCCPAGFQCHTEKGTCEMGILQVPWMKKVIAPLRLPDPQILKSDTPCDDFTRCPTNNTCCKLNSGDWGCCPIPEAVCCSDNQHCCPQGFTCLAQGYCQKGDTMVAGLEKIPARQTTPLQIGDIGCDQHTSCPVGQTCCPSLKGSWACCQLPHAVCCEDRQHCCPAGYTCNVKARTCEKDVDFIQPPVLLTLGPKVGNVECGEGHFCHDNQTCCKDSAGVWACCPYLKGVCCRDGRHCCPGGFHCSARGTKCLRKKIPRWDMFLRDPVPRPLL
modifications: biotinylated (sites not given)
binding result [4]: binds

B4: sortilin pro-domain peptide (peptide, UniProt Q99523 34-77, looked up)
peptide: QDRLDAPPPPAAPLPRWSGPIGVSWGLRAAAAGGAFPRGGRWRR
notes: domain: pro-domain; also called Sortilin1 pro-domain peptide; sortilin pro-peptide
IC50 [5]: 450 nM | IC50 [6]: ~5900 nM

B5: non-biotinylated PGRN peptide (peptide)
peptide: TKCLRREAPRWDAPLRDPALRQLL
notes: also called unlabeled PGRN peptide; C-terminal peptide of PGRN
IC50 [5]: 35 nM

Other lines, results leading:

Kd [1]: 2 nM | Kd [2]: 1.6 nM | Kd [3]: 1.4 nM
B1: biotinylated PGRN peptide (peptide)
peptide: Biotin-TKCLRREAPRWDAPLRDPALRQLL
notes: Detected through streptavidin-Tb in formats #3, #6 and #10; also called 24 amino acid-sized C-terminal peptide of PGRN; biotinylated peptide

binding of PGRN to sortilin-expressing, but not control (LacZ), HEK293T cells (Sortilin): strong and specific binding
B3: mouse PGRN: mouse PGRN protein, biotinylated, tested in the FACS binding assay (protein)
chain: B2 chain
